Assay results reported in PMC12375015.

Target: Cas7 of the PseCAST TniQ-Cascade (QCascade) complex (Pseudoalteromonas (Tn7016 transposon))
Experiment: cryo-EM structure

Cas7 of the PseCAST TniQ-Cascade (QCascade) complex (natural protein)
stoichiometry N: 6
